# Laboratory results reported in the DeepSol protein solubility set.
# Assay: soluble on expression in E. coli; label from the status in PepcDB or PDB records
row,Sequence,soluble on expression in E. coli
1,MFALHRHFPNPLPSNPSISRHEQKVADHLASIIKESYYGDTSVEESEYLVQEEYGDWEPEVFEPYDCVLPDQDDVLFGEKAVSREELDKAITFYRSGKIGSRPITTMHHSYRWIRTDAHMNKLRKYEKDKKAFQENVRVRLAQLTQRLYEEVKEKLDNGVNLHDSDLMAMALEINTREMKLQNFKASQSWITRWKQSHRIVSRRVTKFVTRKCLINKDAIKKNADDFVKNARTEISNYHPSMVFNCDQTGIQKELYPARSLAFMGEKTVERLAQSKSSLTHSFTFLPMIFLDGSMGPKAFMVIAEPKGQFPPSRPIPNCPNLEVRAGYKTHIMTKQLMCDFFESCVFIPSVPKKLYIMLDSWPAFKDHTTIKNLVPNGHDVVIRNIPEHTTGMIQPLDVYWNAPWKSLIKKFTAYALRTQTDYVIAQRNNAICMVSVLYHQISAEHFRPFLQHCWKKAGYVGAANTSSTPFLTPAQYCIDHGDTVICYHTGCNHLGFIRCARCKIFPARTGKNFSHILIVENVSFPIQYFFLNIAPFILVIP,not soluble
2,MFDAVKKIVLSYRVSPNRDTLSAIKAIDDVLRKLASLPDDLSFVVDGNPIYRLAQHFFAQHGISFDVRQVIGLTNEDPVSEEFRPLKQIIERFNRTFKGNYRPTHGFGAEEGSVSFVTLFVAYFNFLRPHSALEGRVPVVIPELADLPHMPARWTKLIAMAQAFLQQEAA,not soluble
3,MFDFDGYMLRKAKSVNKALEAAVQMKEPLKIHESMRYSLLAGGKRVRPMLCIAACELVGGDESTAMPAACAVEMIHTMSLMHDDLPCMDNDDLRRGKPTNHMAFGESVAVLAGDALLSFAFEHVAAATKGAPPERIVRVLGELAVSIGSEGLVAGQVVDVCSEGMAEVGLDHLEFIHHHKTAALLQGSVVLGAILGGGKEEEVAKLRKFANCIGLLFQVVDDILDVTKSSKELGKTAGKDLVADKTTYPKLIGVEKSKEFADRLNREAQEQLLHFHPHRAAPLIALANYIAYRDN,soluble
4,MFEKVKVSTCFHVTLLKDYIVFYVSNNLNFASRWPRRRRGQRLLPTALRAMMLNPTEALLAEVSKARTSGARITVEEFIPIYKKVEAACGRSTTLKEFQTLLSHFDREGNGQIMLMELKSMLQNGGEKMTNQEARALKPATGLDTIYRNLNFNHKFTLDHSAIGFLRTNQFFDVQMIPVSRFFTVQDPSNALLSYTQKGIDFFEKLGQFSKEKAAIEEEYSTKLRSLAKKYAKKSEEDDEILKSVSYTSSFNSFLQQLDQIATRHQTSAEHIRGGVVSYVASKTCQMRSSRKNAINDLKTINDKLEDQINEMCKSGKCYLKSFKDAENSYQKFYKADKNLEISRLELEKARALANARNEACELAKQDYSALVRKTNAEQKRYHVELLPVIFARLKAVDKECIADMRQVLQKIVSFDDSLADSTEECRKIMQREVGKIDAEGDAQLVLKSVEATIEQPAPFEIEDLGDPKNCDSRTNDSADGSGGKLLKSSPSKNRIIRNFLGILKEKEADEKPEASNNDQLMYTDKSKPAHVRLSCLRSKIRDMEKQLEQAIQGREGITRLQQAYYTNPQHGNPSACTEPLISYAKKIEKLKMDIHNLKEFYAMLEMSVEEGQERSFGGRDTPDTTRSMSGSSTNQSSSKTIEDVLSGEAGNSSSADDSSKNILRQLFTTPKRLISSPKTSKSSTPTPLRRRAEISSPKILRSSFSGAIRKSLSTPDSVKVETAVTVTALFEFAKSSAETMSIEQGEILLVLEHDHGDGWTRTKKKHNEESGFVPTSYLQFPQ,not soluble
5,MFELVDNIAQTAVIKVIGVGGGGGNAVNHMAKNNVEGVEFICANTDAQALKNIAARTVLQLGPGVTKGLGAGANPEVGRQAALEDRERISEVLEGADMVFITTGMGGGTGTGAAPIIAEVAKEMGILTVAVVTRPFPFEGRKRMQIADEGIRALAESVDSLITIPNEKLLTILGKDASLLAAFAKADDVLAGAVRGISDIIKRPGMINVDFADVKTVMSEMGMAMMGTGCASGPNRAREATEAAIRNPLLEDVNLQGARGILVNITAGPDLSLGEYSDVGNIIEQFASEHATVKVGTVIDADMRDELHVTVVATGLGARLEKPVKVVDNTVQGSAAQAAAPAQREQQSVNYRDLDRPTVMRNQSHGSAATAAKLNPQDDLDYLDIPAFLRRQAD,soluble
6,MFENTKKALETFRTAIECVKCKKPRGDLQYLGSSCKHAYCWECIATFQQKPSGKRSSVARHMCPSCAFPLDTSKITEAHMLKTCFDTLSELNDLLQKVGTTSLTQAEFACTQNIFNKEKTPADAVEKFLETQAHMPDEMGQLGEEDDDLMCKDENRENSNSPELDIFHDYSKEASPTRNSTKRPSTVSVHERKPKRTLTEILQRRSTAPAATGVATYAQAFGSSSNPVKAEIIEEDIFSKAIPLTKRQASMSASAKKQPKLEPEEPEEVPSTSRSRKNSIKSDKIERRSQSPMSFGEKSMSVKSEQRRSSYGTRRGEAVLVNSIRNNRIPQLRSAVEAGTCVNEKEDGKTPLYVAVENSSLEAVKILVEAGAVINASCGSTLETTLHEAVRRQNTQIVEYLLSKGASIKIRNIAGKTVEEMAKSDPKIRKIIEKFKTEQRVLQPVVAPPKSRLHFVQLIDEKMLTESEKRKLPGKINIVPADMDSPTHVVVTVDLKTRVLNINKEHIGEILKAIIKSGMIVSRDWLRACIIDPSKVDDDRSYMVQKVRWMEGEVFENTIEQWKKTITKMQPKLFAGCKFFIPKPKYNFLDRPALFEIIRSAGGQAAAREPIIDEKDPPPYHNANLKPNFVLYSLTHDIGDKFRDCTKYNLVSEQWLIEAILGCSITTPPH,not soluble
7,MFEQIKNNVENAIEALKQGKPVVVLDDYDRENEGDLILPGQKATEENIAFMLEHTSGIICLAMDSKKARELNLTPMVAADQNNSTFTTPFTVTIEAKEGVTTGVSAKDRAHTIQVASKADSKAEELARPGHIFPLIANDKGVLGRNGHTEATVDLMKLSGFNSAGVLCELMNKDGTMMKAAELEAFAKKHDLPLLTIAELYQYRLATENFVTKMASSTIPFKKIGELEMSVYKDNFSGDEVVVLSKPYSGNNPLVRMHSSCITGDIFGSLRCDCQDQLHKGIEMISEEGGFFIYLDQEGRGIGLTNKLKAYNLQMNENMDTLEANLALGLPADARKYDLAIQVLKYNNVNRCRLISNNPEKLAALRNVDIETQPVYCEAFVNSHNRNYLITKKIKAKHTIKGI,not soluble
8,MFERFDSDRSRYASLGVVSSLPSGLIDSIWLIIDLNLKGVIPLNDLLHFDLLNNNGKVTVHFSQENSSVEMAIDLPFSYSTAYPSRIFAFDDGHRETILLPAEMLES,soluble
9,MFGNHGQLFRLSVFRSADTAQQFLRQCYQQLQRDDAVQRSYANCYPFLYYLEHGQNFYAAAQQAPLSIKPVLLFYGMVQLLKACLLTVDPDYPESTSVLAHGVSARKRKKQGYEFLDDEVKIQKNGLFAHFSEKMFHVKQEAGEKFRMGTLLQRIGELHETFFLLSGRKKPLSLPVVHTASPPMLAIPKVILDHYHMSLSRFVQYLCEEGQGKRLSFAKEEGEFLYFHIESPLSPAGEGPFLFHLDGTLRIPVKKEKTFSLPEIHAHYLLLYNLSMISRYETEWWSELLHSYPSKAYTFILEFLSVSAEKVPLLLHEYLMRKFLG,not soluble
10,MFGRLKQKVKEKTGRAKATTLPAEVDDAMGYFKNLTPRVKDLHKSMTNLEDISKWQKKASFSGTLENYSRLGDKINVKPFMDAVDARMGAEADAVKGVLAICEKYKSFYQNEGKLHADSIANLNRTRLDMDSAADKYANNETEVNKTRLDNSTTEFEVACERMRELANGIKTIESNHSSWQDGLMKEIKVALRK,not soluble
11,MFGVKDAIFKIKRSIAGTDSSDSTAYTTASESSPQLKDSHNPFRNKTTSERTIVEEGSLPPVRLNGYLPSTKNKLLTPEMCDEIRTLMPTRIQLYTEWNLLYSLEQHGSSLHSLYSNVAPDSKEFRRVGYVLVIKDRKNGIFGAYSNEAFHPNEHRQYTGNGECFLWKLDKVPDVNISEKEESEQEGKEGKEEGDKEERWRFSGYPYTGVNEFAIYCTSEFLSMGAGDGHYGLLCDDGLLHGVSNPCQTYGNEVLSKEGKKFSIVALEVWRVG,soluble
12,MFGVTLWEMFSGGEEPWAGVPPYLILQRLEDRARLPRPPLCSRALYSLALRCWAPHPADRPSFSHLEGLLQEAGPSEACCVRDVTEPGALRMETGDPITVIEGSPDSTIWKGQNGRTFKVGSFPASAVTLADAGGLPATRPVHRGTPARGDQHPGSIDGDRKKANLWDAPPARGQRRNMPLERMKGISRSLESVLSLGPRPTGGGSSPPEIRQARAVPQGPPGLPPRPPLSSSSPQPSQPSRERLPWPKRKPPHNHPMGMPGARKAAALSGGLLSDPELQRKIMEVELSVHGVTHQECQTALGATGGDVVSAIRNLKVDQLFHLSSRSRADCWRILEHYQWDLSAASRYVLARP,soluble
